According to patent US11685791B2, “Antibody binding specifically to N-terminal region of lysyl-tRNA synthetase exposed on cell membrane” (Zymedi Co., Ltd., priority 2017, dated 2023):
Values belong to the molecule of their own block, whether it stands above or below them.

Experiments:
[1] = test system: pulmonary arterial hypertension (PAH) models; test: Echocardiography in PAH model; type: in vivo, rat; conditions: MCT PAH rats, five animals per group
Text: (§3) To induce PAH in seven-week-old SD rats (Orient Bio), 60 mpk of monocrotaline (MCT) was subcutaneously injected. […] All antibodies were i.v. injected twice a week, and sildenafil was orally administered every day.

[2] = Body weight change in PAH model; conditions: MCT + Sildenafil, n = 5
Text: as §3

[3] = test system: pulmonary arterial hypertension (PAH) models; test: Blood pressure and cardiac output in monocrotaline PAH model; type: in vivo, rat; conditions: MCT + Sildenafil 25 mpk orally every day, 3 weeks
Protocol: After three weeks, the rats were anesthetized with isoflurane, and measured for blood flow and pressure by using a high-precision pneumatic measurement system (MPVS cardiovascular pressure and volume system, model name: MPVS Ultra, manufacturer: Millar Instruments). The right ventricular end-systolic pressure (RVESP), right ventricular end-diastolic pressure, left ventricular end-systolic pressure, left ventricular end-diastolic pressure were measured using an exclusive catheter (Mikro-Tip rat pressure catheter, manufacturer: Millar Instruments). The cardiac output was measured using a perivascular blood flow probe (Transonic Flow probes, manufacturer: Millar Instruments), and experimental method thereof was performed by the same method as disclosed in the following literature: Pacher P, Nagayama T, Mukhopadhyay P, Batkai S, Kass D A. Measurement of cardiac function using pressure-volume conductance catheter technique in mice and rats. Nat Protoc 2008; 3(9):1422-34.
The models of PAH, which is a disease having a close relation between immune cell invasion and pathological phenomena, were treated with N3 IgG antibody (1 mpk or 10 mpk) for 3 weeks (i.v., twice a week), and then measured for right ventricular end-systolic pressure (RVESP), right ventricular end-diastolic pressure (RVEDP), left ventricular end-systolic pressure (LVESP), left ventricular end-diastolic pressure (LVEDP), and cardiac output (CO).

[4] = target: T1, KRS N-terminal region exposed on the cell membrane (A549 cells, myc-KRS WT/T52D/T52A) (Homo sapiens, UniProt Q15046, T52D); test: Immunofluorescence of scFv clones on cells with KRS N-terminal region exposed on the cell membrane; type: cell-based; conditions: A549 cells expressing myc-KRS T52D (active), T52A (inactive) or WT-KRS (laminin untreated)
T1 construct: expressed in transfected cells; host or cells: A549
Protocol: (§1) Immunofluorescence was performed to investigate whether the scFv clones selected in Example <1-5> actually bound to the KRS N-terminal region exposed on the cell membrane. In order to make a phenomenon in which KRS is exposed on the membrane, KRS-T52D mutant (active mutant) was used. […] After incubation for 24 h, the cells were incubated using serum-free media (RPMI 1640 media) at 37° C. for 1 h. Thereafter, the cells were treated with 10 μg/ml laminin (L2020; Sigma) and then incubated at 37° C. for 1 h.
(§2) The prepared samples were washed with PBS (4° C.), fixed by the treatment with 4% paraformaldehyde for 10 min, and then washed. The samples were blocked with CAS block for 10 min, and treated with the scFv and Myc antibodies for 2 h. Thereafter, the unbound antibodies were washed out, and incubated with secondary antibodies for 1 h in a dark room. DAPI staining was performed for 10 min before mounting.

KRS N-terminus = target: T2, KRS N-terminus (Homo sapiens, UniProt Q15046); test: Western blotting of scFv clones against full-length KRS and KRS fragments; type: binding; conditions: full-length KRS, fragment lacking N-terminal aa 1-71, fragment aa 1-200; transformed A549 lysate
T2 construct: a KRS fragment composed of amino acid residues 1-200 in the N-terminus; expressed in transfected cells; host or cells: A549
Text: To investigate whether the scFv clones (N3, N5, N7, and N9) finally selected through Example <1-6> actually bound to KRS N-terminus, full-length KRS (denoted by F, SEQ ID NO: 76), a KRS fragment with deletion in amino acids at positions 1-71 in the N-terminus (defined by SEQ ID NO: 1), and a KRS fragment composed of amino acid residues 1-200 in the N-terminus (defined by SEQ ID NO: 2) were used to conduct western blotting.
A549 cells were transformed by the method as described in Example <1-6> using polynucleotides encoding full-length KRS and KRS fragments. Thereafter, the cells were lysed, and western blotting was performed by the same method as described in Example <1-4>.

KRS 1-207 aa = target: T3, KRS 1-207 aa (Homo sapiens, UniProt Q15046); test: SPR (Biacore 2000) binding of IgGs to immobilized KRS; conditions: immobilized KRS 185 RU, antibody 6.25-100 nM
T3 construct: to the antigen (KRS 1-207 aa)
Protocol: The quantitative binding ability of the purified antibody proteins (N3 IgG and N5 IgG) to the antigen (KRS 1-207 aa) were measured using Biacore 2000 SPR (surface plasmon resonance) (GE healthcare, US) biosensor. After KRS was immobilized on a sensor chip (CM5, GE healthcare, US), antibody proteins (6.25-100 nM), which were serially diluted with HES buffer solution (10 mM HEPES, pH 7.4, 150 mM NaCl, 3 mM EDTA, 0.005% surfactant P20), were allowed to flow at a rate of 30 μl/min for 3 min, and 1 M NaCl/20 mM NaOH was allowed to flow at a rate of 30 μl/min for 3 min, thereby inducing the dissociation of proteins bound to the antigen. Mock IgG was used as control. Specific experiment conditions are as follows:
Immobilized level: 185 RU
Antibody: N3 IgG and N5 IgG
Running buffer: HBS-N buffer
Regeneration: 2 M NaCl, 20 mM NaOH (flow 30 ul/min 1 min)
The affinity was obtained from the kinetic rate constants (ka and kd) and equilibrium dissociation constants (KD) by using BIA evaluation ver. 3.2 software. FIGS. 6A-6B show SPR graph results of N3 IgG and N5 IgG, respectively. It was confirmed from FIGS. 6A-6B and Table 3 that N3 IgG and N5 IgG of the present invention has high specific binding ability to the KRS N-terminal region.

[5] = target: T4, extracellularly exposed KRS N-terminal region (Homo sapiens, UniProt Q15046); test: Immunofluorescence staining of converted IgGs; type: cell-based; conditions: WT-KRS membrane localization induced by laminin treatment
T4 construct: expressed in transfected cells; host or cells: A549
Protocol: as §1, §2
To investigate whether the IgGs constructed in the present invention actually bound to the region of KRS exposed on the cell membrane, immunofluorescence was performed. Immunofluorescence staining was performed by the same method as described in Example <1-6> by using N3 IgG and N5 IgG as representatives.

KRS = target: T5, KRS (Homo sapiens, UniProt Q15046); test: Western blotting and immunoprecipitation of converted IgGs; type: binding; conditions: HCT116 cell lysate
T5 construct: endogenous in cells; host or cells: HCT116
T5 sequence (Q15046 whole entry): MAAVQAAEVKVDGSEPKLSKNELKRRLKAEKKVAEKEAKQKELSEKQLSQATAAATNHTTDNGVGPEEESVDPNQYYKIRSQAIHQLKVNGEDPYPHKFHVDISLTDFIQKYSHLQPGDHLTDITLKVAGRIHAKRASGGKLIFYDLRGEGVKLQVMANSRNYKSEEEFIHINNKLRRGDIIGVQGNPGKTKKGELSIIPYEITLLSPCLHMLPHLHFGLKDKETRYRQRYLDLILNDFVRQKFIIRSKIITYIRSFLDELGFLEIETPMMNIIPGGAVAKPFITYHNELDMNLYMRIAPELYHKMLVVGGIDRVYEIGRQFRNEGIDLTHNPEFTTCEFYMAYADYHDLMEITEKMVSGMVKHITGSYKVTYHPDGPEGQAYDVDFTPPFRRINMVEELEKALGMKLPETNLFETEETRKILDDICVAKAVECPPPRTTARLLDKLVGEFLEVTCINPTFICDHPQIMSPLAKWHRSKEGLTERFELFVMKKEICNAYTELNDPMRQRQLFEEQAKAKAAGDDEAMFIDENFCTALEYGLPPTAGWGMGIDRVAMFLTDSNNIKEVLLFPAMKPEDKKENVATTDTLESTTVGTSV

T2 sequence (Q15046 1-200): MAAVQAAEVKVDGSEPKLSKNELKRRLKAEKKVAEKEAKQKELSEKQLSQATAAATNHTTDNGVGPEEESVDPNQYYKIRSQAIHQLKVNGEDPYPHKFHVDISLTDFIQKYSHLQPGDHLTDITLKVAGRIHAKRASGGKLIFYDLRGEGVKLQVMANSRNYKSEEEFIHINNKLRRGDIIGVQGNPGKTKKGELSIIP
T1 sequence (Q15046 whole entry T52D): as the sequence (Q15046 whole entry) above, with T52D counted along it
T3 sequence (Q15046 1-207): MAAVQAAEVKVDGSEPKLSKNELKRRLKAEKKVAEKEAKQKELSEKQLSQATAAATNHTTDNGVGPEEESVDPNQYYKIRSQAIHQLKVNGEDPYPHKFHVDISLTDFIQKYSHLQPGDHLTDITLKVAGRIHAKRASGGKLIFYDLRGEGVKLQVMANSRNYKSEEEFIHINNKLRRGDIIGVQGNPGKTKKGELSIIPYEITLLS
T4 sequence (Q15046 whole entry): as the sequence (Q15046 whole entry) above

binding to membrane-exposed KRS N-terminal region (immunofluorescence) [4]: binding only active mutant cells | specific binding to KRS N-terminus (western blotting) (KRS N-terminus): specifically bound to the KRS N-terminus
B1: N7 scFv: scFv clone consisting of the amino acid sequence defined by SEQ ID NO: 71 (protein)
scFv: EVQLLESGGGLVQPGGSLRLSCAASGFTFSDYYMSWVRQAPGKGLEWVSGIYSGTGSIYYADSVEGRFTISRDNSKNTLYLQMNSLRAEDTAVYYSARPPYHFDYWGQGTLVTVSSGGGGSGGGGSGGGGSQSVLTQPPSASGTPGQRVTISCTGSSSNIGSNYVTWYQQLPGTAPKLLIYADSNRPSGVPDRFSGSKSGTSASLAISGLRSEDEADYYCGAWDYSLSGYVFGGGTKLTVL

binding to membrane-exposed KRS N-terminal region (immunofluorescence) [4]: binding only active mutant cells | specific binding to KRS N-terminus (western blotting) (KRS N-terminus): specifically bound to the KRS N-terminus
B3: N9 scFv: scFv clone consisting of the amino acid sequence defined by SEQ ID NO: 73 (protein)
scFv: EVQLLESGGGLVQPGGSLRLSCAASGFTFSNYDMSWVRQAPGKGLEWVSWIYSGDSSKYYADSVKGRFTISRDNSKNTLYLQMNSLRAEDTAVYYSARETRTFDYWGQGTLVTVSSGGGGSGGGGSGGGGSQSVLTQPPSASGTPGQRVTISCTGSSFNIGSNAVYWYQQLPGTAPKLLIYYNSQRPSGVPDRFSGSKSGTSASLAISGLRSEDEADYYCGSWDASLSGYVFGGGTKLTVL

The next lines start with the molecule.

Molecule: CCCc1nn(C)c2c(=O)[nH]c(-c3cc(S(=O)(=O)N4CCN(C)CC4)ccc3OCC)nc12 [Sildenafil, sildenafil, reference compound]
D-shaped left ventricle finding indicating pressure overload in the right ventricle [1]: three | body weight, absolute change [2]: 104.1 ± 26.4 g | body weight, relative change [2]: 49.8 ± 10.5% | CO ([3]; n = 4): 49.6 ± 17.7 mL/min | LVEDP ([3]; n = 5): 3.6 ± 2.3 mmHg | LVESP ([3]; n = 5): 83.2 ± 4.7 mmHg | RVEDP ([3]; n = 5): 2.6 ± 1.3 mmHg | RVESP ([3]; n = 5): 48.4 ± 9.6 mmHg

B2: N5 IgG: IgG converted from N5 scFv; VH SEQ ID NO: 53, VL SEQ ID NO: 55 (antibody, V domains shown)
VH: EVQLLESGGGLVQPGGSLRLSCAASGFTFSDYAMSWVRQAPGKGLEWVSWIYSGSGNKYYADSVKGRFTISRDNSKNTLYLQMNSLRAEDTAVYYCARMGLDFDYWGQGTLVTVSS
VL: QSVLTQPPSASGTPGQRVTISCTGSSSNIGNNYVSWYQQLPGTAPKLLIYDDNQRPSGVPDRFSGSKSGTSASLAISGLRSEDEADYYCGTWDDSLSAYVFGGGTKLTVL
ka (KRS 1-207 aa): 3.13e+06 M⁻¹ s⁻¹ | kd (KRS 1-207 aa): 0.003282 s⁻¹ | binding to extracellularly exposed KRS N-terminal region (immunofluorescence) [5]: favorably bound specifically | KRS binding ability (western blotting and immunoprecipitation) (KRS): bound to KRS

B4: N5 scFv: scFv clone consisting of the amino acid sequence defined by SEQ ID NO: 69 (protein)
scFv: EVQLLESGGGLVQPGGSLRLSCAASGFTFSDYAMSWVRQAPGKGLEWVSWIYSGSGNKYYADSVKGRFTISRDNSKNTLYLQMNSLRAEDTAVYYCARMGLDFDYWGQGTLVTVSSGGGGSGGGGSGGGGSQSVLTQPPSASGTPGQRVTISCTGSSSNIGNNYVSWYQQLPGTAPKLLIYDDNQRPSGVPDRFSGSKSGTSASLAISGLRSEDEADYYCGTWDDSLSAYVFGGGTKLTVL
binding to membrane-exposed KRS N-terminal region (immunofluorescence) [4]: binding only active mutant cells | specific binding to KRS N-terminus (western blotting) (KRS N-terminus): specifically bound to the KRS N-terminus

B5: N3 scFv: scFv clone consisting of the amino acid sequence defined by SEQ ID NO: 67 (protein)
scFv: EVQLLESGGGLVQPGGSLRLSCAASGFTFSSYDMSWVRQAPGKGLEWVSAISYDNGNTYYADSVKGRFTISRDNSKNTLYLQMNSLRAEDTAVYYSARMALDFDYWGQGTLVTVSSGGGGSGGGGSGGGGSQSVLTQPPSASGTPGQRVTISCTGSSSNIGSNYVTWYQQLPGTAPKLLIYDNSNRPSGVPDRFSGSKSGTSASLAISGLRSEDEADYYCASWDDSLSAYVFGGGTKLTVL
binding to membrane-exposed KRS N-terminal region (immunofluorescence) [4]: binding only active mutant cells | specific binding to KRS N-terminus (western blotting) (KRS N-terminus): specifically bound to the KRS N-terminus
